The source of these data is patent publication US11814447B2, “Peptide ligands for binding to EphA2” (BICYCLERD LIMITED, priority 2018, dated 2023).

Starred links: 1 amine or outer side, 2 acyl side, 3 side chain; linkers in the order of their positions; H or OH if unused. Positions of bridges follow the written chain, without caps; N, C: chain ends. Non-standard residues stand in square brackets, D forms with d. Primed or numbered codes have the meaning given here. No end group written: not given here. TBMB′ = 1,3,5-tris(bromomethyl)benzene, 1,3,5-tris(methylene)benzene core, three thioethers to Cys; 4FlPro = 4-fluoropyrrolidine-2-carboxylic acid (4-fluoroproline); 1Nal = N[C@@H](Cc1cccc2ccccc12)C(=O)O; TBMB = c1c(C[*:1])cc(C[*:3])cc1C[*:2]; Hyp = O=C(O)[C@@H]1C[C@@H](O)CN1; hArg = N=C(N)NCCCC[C@H](N)C(=O)O; hPhe = N[C@@H](CCc1ccccc1)C(=O)O; 4Pal = N[C@@H](Cc1ccncc1)C(=O)O; Tle = CC(C)(C)[C@H](N)C(=O)O; Pip = O=C(O)[C@@H]1CCCCN1; Aze = O=C(O)[C@@H]1CCN1; Aib = CC(C)(N)C(=O)O; Sar = CNCC(=O)O

Experiment [1] concerns the target T1, Human EphA2 (Ecto), C-terminal polyHis (Human, UniProt P29317 24-537).
T1 construct: extracellular domain; also called EPH receptor A2; ephrin type-A receptor 2
Briefly: fluorescence polarisation competition; competitor fluorescent Compound 66. As to the method: (§1) Peptides without a fluorescent tag were tested in competition with a peptide with a fluorescent tag and a known Kd (Table 2). Peptides were diluted to an appropriate concentration in assay buffer as described in the direct binding assay with a maximum of 5% DMSO, then serially diluted 1 in 2. […] Measurements were conducted as for the direct binding assay, however the gain was determined prior to the first measurement. Data analysis was in Systat Sigmaplot version 12.0 where the mP values were fit to a user defined cubic equation to generate a Ki value: […]
On the technique in general: Polarisation of emitted light reports the rotation of a fluorescent probe.

Experiment [2] concerns the target T1, Human EphA2 (Ecto), C-terminal polyHis. Briefly: fluorescence polarisation competition; competitor fluorescent Compound 18. As to the method:
as §1

T1 sequence (P29317 24-537): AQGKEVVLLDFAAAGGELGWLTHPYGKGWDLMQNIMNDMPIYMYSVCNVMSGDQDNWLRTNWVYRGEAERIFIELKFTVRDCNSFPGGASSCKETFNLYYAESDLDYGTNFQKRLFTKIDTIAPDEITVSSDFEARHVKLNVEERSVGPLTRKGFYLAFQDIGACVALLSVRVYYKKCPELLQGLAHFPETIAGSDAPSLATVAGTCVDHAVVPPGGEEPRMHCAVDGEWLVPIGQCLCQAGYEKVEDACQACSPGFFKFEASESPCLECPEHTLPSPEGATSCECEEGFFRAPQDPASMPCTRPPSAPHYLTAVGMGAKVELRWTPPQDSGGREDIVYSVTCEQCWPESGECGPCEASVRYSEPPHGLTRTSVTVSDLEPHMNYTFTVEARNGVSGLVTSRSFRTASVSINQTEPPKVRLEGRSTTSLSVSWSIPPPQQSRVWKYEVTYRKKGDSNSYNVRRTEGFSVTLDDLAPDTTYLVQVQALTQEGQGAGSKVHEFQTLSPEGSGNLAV

Consider ACRVSPEYCPFGPVWCAGAAA (linker 2-9-16 via TBMB, also called Compound 34) [Bicycle Compound Number 34 (TBMB scaffold)], for which affinity in experiment [1] was put at a Ki of 77.4 nM.

For the molecule ACMNDWLCQLGWTCA (linker 2-8-14 via TBMB, also called Compound 30) [Bicycle Compound Number 30 (TBMB scaffold)], affinity in experiment [1] was put at a Ki of 56 nM.

Consider ACMNDWLCSLGWTCA (linker 2-8-14 via TBMB, also called Compound 24) [Bicycle Compound Number 24 (TBMB scaffold)], for which the Ki (in general, the equilibrium dissociation constant of an inhibitor or competing ligand from its target) in experiment [1] amounted to 82.3 nM.

B1: Bicycle Compound Number 115 (TBMB scaffold) (peptide)
peptide: [Sar][Sar]ACP[1Nal]GPFWCPV[dA]RPGC
modifications: linker 4-11-18 via TBMB
notes: also called Sar2-ACP(1Nal)GPFWCPV(D-Ala)RPGC
For the molecule B1, the results for the Ki in experiment [2] and in experiment [1] were 12.5 nM and 1.64 nM, respectively.

As for [Sar][Sar]ACP[1Nal]GPFWCPVNRP[dA]C (linker 4-11-18 via TBMB) [Bicycle Compound Number 116 (TBMB scaffold)], the Ki was 2.95 nM in experiment [2] and 3.2 nM in experiment [1].

[Sar][Sar]ACP[1Nal]GPFWCP[Tle]N[hArg][Aib]GC (linker 4-11-18 via TBMB) [Bicycle Compound Number 138 (TBMB scaffold)] displayed a Ki in experiment [2] of 5.1 nM. That is a single-digit nanomolar value.

In experiment [1], ACRVSPEYCPFGPVWCA (linker 2-9-16 via TBMB, also called Compound 33) [Bicycle Compound Number 33 (TBMB scaffold)] came in with a Ki of 78.5 nM.

Consider ACRVSPEYCPFGPYWCA (linker 2-9-16 via TBMB, also called Compound 38) [Bicycle Compound Number 38 (TBMB scaffold)], for which the affinity in experiment [1], expressed as Ki, was 26.5 nM.

ACRVSPEYCPFGPSWCA (linker 2-9-16 via TBMB, also called Compound 36) [Bicycle Compound Number 36 (TBMB scaffold)] returned a Ki in experiment [1] of 40.5 nM.

In experiment [1], ACRVSPEYCPFGPEWCA (linker 2-9-16 via TBMB, also called Compound 37) [Bicycle Compound Number 37 (TBMB scaffold)] came in with an inhibition constant (Ki) of 61.2 nM. Compared with the last molecule, the Ki is about 1.5-fold higher.

For [Sar][Sar]ACPWGPFWCPVNR[Pip]GC (linker 4-11-18 via TBMB) [Bicycle Compound Number 108 (TBMB scaffold)], the Ki in experiment [1] came to 374 nM.

As to [Sar][Sar]AC[Aib][1Nal]GPFWCPVNRPGC (linker 4-11-18 via TBMB) [Bicycle Compound Number 113 (TBMB scaffold)], the Ki in experiment [2] turned out to be 10 nM; in experiment [1] it was 6.6 nM.

B2: Bicycle Compound Number 124 (TBMB scaffold) (peptide)
peptide: [Sar][Sar]AC[Aib][1Nal]GPFWCPV[dA]RPGC
modifications: linker 4-11-18 via TBMB
notes: also called Sar2-AC(Aib)(1Nal)GPFWCPV(D-Ala)RPGC
Molecule B2 came in with an inhibition constant Ki in experiment [2] of 26 nM.

For [Sar][Sar]AC[Aib][1Nal]GPFWCPVNRP[dA]C (linker 4-11-18 via TBMB) [Bicycle Compound Number 125 (TBMB scaffold)], the values for the inhibitory constant (Ki) in experiment [2] and in experiment [1] were 6.4 nM and 0.61 nM, respectively.

On to [Sar][Sar]ACPWGPFWCPVNR[Hyp]GC (linker 4-11-18 via TBMB) [Bicycle Compound Number 107 (TBMB scaffold)], for which the values for the Ki in experiment [2] and in experiment [1] were 48.7 nM and 85.8 nM, respectively.

For [Sar][Sar]ACPWGPF[1Nal]CPVNRPGC (linker 4-11-18 via TBMB′, also called Compound 96) [Bicycle Compound Number 96 (TBMB scaffold)], the inhibition constant (Ki) in experiment [2] is 31.3 nM; in experiment [1] it was 68.1 nM.

B3: Bicycle Compound Number 117 (TBMB scaffold) (peptide)
peptide: [Sar][Sar]ACPWGPF[1Nal]CPV[dA]RPGC
modifications: linker 4-11-18 via TBMB
notes: also called Sar2-ACPWGPF(1Nal)CPV(D-Ala)RPGC
Consider B3, for which the Ki came out at 53 nM in experiment [2] and 75 nM in experiment [1].

B4: Bicycle Compound Number 118 (TBMB scaffold) (peptide)
peptide: [Sar][Sar]ACPWGPF[1Nal]CPVNRP[dA]C
modifications: linker 4-11-18 via TBMB
notes: also called Sar2-ACPWGPF(1Nal)CPVNRP(D-Ala)C
In the case of B4, in experiment [2], the inhibition constant Ki was 37 nM. That is a double-digit nanomolar value.

With [Sar][Sar]ACPWGPFWC[Hyp]VNRPGC (linker 4-11-18 via TBMB′, also called Compound 98) [Bicycle Compound Number 98 (TBMB scaffold)], the Ki in experiment [1] was determined as 163 nM.

As to [Sar][Sar]ACPWGPFWCPVNR[Aze]GC (linker 4-11-18 via TBMB) [Bicycle Compound Number 106 (TBMB scaffold)], the inhibition constant (Ki) in experiment [1] turned out to be 155 nM. The Ki values of the last two molecules are within 1.5-fold of each other.

Take [Sar][Sar]ACPWG[Aib]FWCPVNRPGC (linker 4-11-18 via TBMB′, also called Compound 80) [Bicycle Compound Number 80 (TBMB scaffold)]: the Ki in experiment [2] was found to be 120 nM; in experiment [1] it was 187 nM.

With [Sar][Sar]ACPWGPAWCPVNRPGC (linker 4-11-18 via TBMB′, also called Compound 83) [Bicycle Compound Number 83 (TBMB scaffold)], the Ki was 199 nM in experiment [2] and 288 nM in experiment [1].

As to [Sar][Sar]ACPWGPFWCPVNRP[dA]C (linker 4-11-18 via TBMB) [Bicycle Compound Number 112 (TBMB scaffold)], the inhibition constant (Ki) in experiment [2] worked out at 89 nM.

Regarding [Sar][Sar]ACPWGPFWCPVNRPAC (linker 4-11-18 via TBMB) [Bicycle Compound Number 111 (TBMB scaffold)], the Ki in experiment [2] came to 108 nM; in experiment [1], 238 nM.

As for [Sar][Sar]ACPWGPFWCPVNRAGC (linker 4-11-18 via TBMB) [Bicycle Compound Number 104 (TBMB scaffold)], the figures for the Ki in experiment [2] and in experiment [1] were 124 nM and 194 nM, respectively.

As for [Sar][Sar]ACPWGPFWCPV[dA]RPGC (linker 4-11-18 via TBMB) [Bicycle Compound Number 102 (TBMB scaffold)], the Ki in experiment [2] is 317 nM; in experiment [1], 312 nM.

Consider [Sar][Sar]ACPWGP[4Pal]WCPVNRPGC (linker 4-11-18 via TBMB′, also called Compound 84) [Bicycle Compound Number 84 (TBMB scaffold)], for which the values for the Ki in experiment [2] and in experiment [1] were 33.5 nM and 81.5 nM, respectively.

ACPWGPFWCPVNRPGCA (linker 2-9-16 via TBMB, also called Compound 69) [Bicycle Compound Number 69 (TBMB scaffold)]: the Ki in experiment [2] came out at 107 nM; in experiment [1], 70.1 nM.

For the molecule [Sar][Sar]ACPWGPFWC[4FlPro]VNRPGC (linker 4-11-18 via TBMB, also called Compound 99) [Bicycle Compound Number 99 (TBMB scaffold)], the affinity in experiment [1] corresponds to a Ki of 270 nM.

[Sar][Sar]ACPWGPFWCPVNR[Aib]GC (linker 4-11-18 via TBMB, also called Compound 110) [Bicycle Compound Number 110 (TBMB scaffold)]: the Ki in experiment [2] came to 75 nM; in experiment [1], 140 nM.

For [Sar][Sar]ACPWGPFWCP[Tle]NRPGC (linker 4-11-18 via TBMB, also called Compound 100) [Bicycle Compound Number 100 (TBMB scaffold)], the Ki is 58.3 nM in experiment [2] and 112 nM in experiment [1].

[Sar][Sar]AC[Aib][1Nal]G[Aib]FWCPVNR[Aib]GC (linker 4-11-18 via TBMB) [Bicycle Compound Number 135 (TBMB scaffold)]: the values for the Ki in experiment [2] and in experiment [1] were 43 nM and 30 nM, respectively.

Turning to [Sar][Sar]ACP[1Nal]G[Aib]FWCP[Tle]N[hArg]PGC (linker 4-11-18 via TBMB) [Bicycle Compound Number 136 (TBMB scaffold)], the Ki in experiment [2] stood at 23 nM; in experiment [1] it was 15 nM.

B5: Bicycle Compound Number 130 (TBMB scaffold) (peptide)
peptide: [Sar][Sar]ACP[1Nal]GPFWCP[Tle]N[hArg]PGC
modifications: linker 4-11-18 via TBMB
notes: also called Compound 130; Sar2-ACP(1Nal)GPFWCP(tBuGly)N(HArg)PGC
In turn, B5 gave a Ki in experiment [2] of 0.29 nM.

On to [Sar][Sar]AC[Aib]WGPF[1Nal]CPVNRPGC (linker 4-11-18 via TBMB) [Bicycle Compound Number 114 (TBMB scaffold)], for which affinity in experiment [1] was put at a Ki of 43 nM.

In turn, [Sar][Sar]ACPWGP[hPhe]WCPVNRPGC (linker 4-11-18 via TBMB′, also called Compound 87) [Bicycle Compound Number 87 (TBMB scaffold)] gave a Ki in experiment [2] of 162 nM.

In turn, [Sar][Sar]ACPWGPFWCPVNR[4FlPro]GC (linker 4-11-18 via TBMB) [Bicycle Compound Number 109 (TBMB scaffold)] showed a Ki in experiment [1] of 184 nM.

On to [Sar][Sar]ACP[1Nal]G[Aib]FWCPVNRPGC (linker 4-11-18 via TBMB) [Bicycle Compound Number 119 (TBMB scaffold)], for which the Ki in experiment [1] came out at 8.4 nM.

B6: Bicycle Compound Number 127 (TBMB scaffold) (peptide)
peptide: [Sar][Sar]ACP[1Nal]G[Aib]FWCPV[dA]RPGC
modifications: linker 4-11-18 via TBMB
notes: also called Sar2-ACP(1Nal)G(Aib)FWCPV(D-Ala)RPGC
Regarding B6, the Ki in experiment [2] came to 40 nM; in experiment [1], 33 nM.

AHDVPCPWGPFWCPVNRPGCA (linker 6-13-20 via TBMB (inferred), also called Compound 59) [Bicycle Compound Number 59 (TBMB scaffold)] showed a Ki in experiment [2] of 0.54 nM. This counts as sub-nanomolar.

As to ARDDPCPWGPFWCPVNRPGCA (linker 6-13-20 via TBMB (inferred), also called Compound 62) [Bicycle Compound Number 62 (TBMB scaffold)], the Ki in experiment [1] turned out to be 28 nM.

For ACPWGPAWCPVRDTNCA (linker 2-9-16 via TBMB, also called Compound 42) [Bicycle Compound Number 42 (TBMB scaffold)], the Ki in experiment [1] was 316 nM.

As for [Sar][Sar]ACPWGPFWCPVN[hArg]PGC (linker 4-11-18 via TBMB) [Bicycle Compound Number 103 (TBMB scaffold)], the Ki in experiment [2] is 126 nM; in experiment [1], 169 nM.
